According to article doi:10.1101/2023.07.08.548231:
“And” between values parts separate entries of the source, which are not always exact repeats. Identical values can stand only once.

Biological target: H2AK119Ub nucleosome (UniProt P04908)
Experiment: cryo-EM structure

Sequence of GST-SSX1 (human SSX1 residues 111-188 with an N-terminal GST tag) (Q16384 111-188): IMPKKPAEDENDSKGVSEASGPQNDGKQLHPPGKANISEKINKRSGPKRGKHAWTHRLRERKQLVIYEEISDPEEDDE

stoichiometry N (SSX1 per nucleosome): 2 and 1
Substance: GST-SSX1 (human SSX1 residues 111-188 with an N-terminal GST tag) (from UniProt Q16384 111-188) (domain or fragment)
